Source: US20240287189A1 (SPARX BIOSCIENCE, published 2024)
Changes are numbered by the printed parent chain.

B1: anti-PDL1 monoclonal antibody 12A4bad (antibody, V domains shown)
VH: QVQLVQSGAEVKKPGSSVKVSCKTSGDTFSTYAISWVRQAPGQGLEWMGGIIPLFGKAHYAQKFQGRVTITADESTSTAYMELSSLRSEDTAVYFCARKFHFVRGSPFGMDVWGQGTTVTVSS
VL: EIVLTQSPATLSLSPGERATLSCRASQSVSSYLAWYQQKPGQAPRLLIYDASNRAPGIPARFSGSGSGTDFTLTISSLEPEDFAVYYCQQRSNWPTFGQGTKVEIK
notes: also called PDL1 antibody 12A4bad
B2: 12A4a Fab displayed on phage (Fab, V domains shown)
VH: B1 VH with L54I, R104S
VL: B1 VL
B3: 12A4ad Fab displayed on phage (Fab, V domains shown)
VH: B1 VH with R104S
VL: B1 VL
B4: 12A4b Fab displayed on phage (Fab, V domains shown)
VH: B1 VH with L54I
VL: not shown
B5: 12A4bd Fab displayed on phage (Fab, V domains shown)
VH: B1 VH
VL: not shown
B6: 12A4bad Fab displayed on phage (Fab, V domains shown)
VH: B1 VH
VL: B1 VL

How the values were obtained:
[1] = target: T1, PDL1 expressed on MDA MB-231 human breast cancer cells (human, UniProt Q9NZQ7 19-290); test: flow cytometry on MDA MB-231 cells, anti-human IgG Fc secondary antibody
T1 construct: whole, on cells; also called MDA MB-231 cells

[2] = target: PDL1 on PDL1 aAPC/CHOK1 cells (UniProt Q9NZQ7 19-290, limits assumed); test: cell-based or functional assay
[3] = target: T2, human PD-L1 (recombinant protein, coated and in solution in the phage ELISA) (human, UniProt Q9NZQ7 19-239); test: competitive phage ELISA, ratio to 12A4 parent clone
T2 construct: It is probably the same Met1-Thr239 extracellular segment that was used for selection; also called CD274; B7 homolog 1

[4] = target: T2, human PD-L1 (recombinant protein, …); test: competitive phage ELISA, Fab on phage, soluble PD-L1 against coated PD-L1

Row | Binder | Kd [1] [nM] | EC50, luminescent signal in PDL1/PD1 blockage bioassay [2] [nM] | Improvement from 12A4 Parent Clone [3] [fold] | Kd [4] [nM]
1 | B1 | 0.0778 | 0.344 | – | –
2 | B2 | – | – | 1.3 | 8.3
3 | B3 | – | – | – | 5
4 | B4 | – | – | 3.3 | –
5 | B5 | – | – | 6.3 | 1.8
6 | B6 | – | – | 7.5 | 1.5
